Experimental data from article PMC3146532, “Multiple ATR-Chk1 Pathway Proteins Preferentially Associate with Checkpoint-Inducing DNA Substrates”.

Assays:
[1] = target: T1, FAAP24-His (UniProt Q9BTP7 1-215); test: pull-down; 10 mM Tris pH 7.4, 50 mM NaCl (oligo DNA) or 100 mM NaCl (plasmid; 200/300 mM for TopBP1 salt series), 10 ug/ml BSA, 10% glycerol, 0.01% NP-40, room temperature, 30 min; bead pull-down with immunoblot; settings: protein: recombinant, tags: His (pET21b)
T1 sequence: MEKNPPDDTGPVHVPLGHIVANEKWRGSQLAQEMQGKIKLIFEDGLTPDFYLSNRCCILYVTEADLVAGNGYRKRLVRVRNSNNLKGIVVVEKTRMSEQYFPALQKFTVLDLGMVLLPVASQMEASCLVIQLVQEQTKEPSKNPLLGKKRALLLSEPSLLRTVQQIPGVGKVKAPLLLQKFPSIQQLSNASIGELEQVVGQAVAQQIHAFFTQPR

[2] = target: T2, His-Chk1 (UniProt O14757 1-476); test: as above; settings: protein: recombinant, tags: His
T2 sequence: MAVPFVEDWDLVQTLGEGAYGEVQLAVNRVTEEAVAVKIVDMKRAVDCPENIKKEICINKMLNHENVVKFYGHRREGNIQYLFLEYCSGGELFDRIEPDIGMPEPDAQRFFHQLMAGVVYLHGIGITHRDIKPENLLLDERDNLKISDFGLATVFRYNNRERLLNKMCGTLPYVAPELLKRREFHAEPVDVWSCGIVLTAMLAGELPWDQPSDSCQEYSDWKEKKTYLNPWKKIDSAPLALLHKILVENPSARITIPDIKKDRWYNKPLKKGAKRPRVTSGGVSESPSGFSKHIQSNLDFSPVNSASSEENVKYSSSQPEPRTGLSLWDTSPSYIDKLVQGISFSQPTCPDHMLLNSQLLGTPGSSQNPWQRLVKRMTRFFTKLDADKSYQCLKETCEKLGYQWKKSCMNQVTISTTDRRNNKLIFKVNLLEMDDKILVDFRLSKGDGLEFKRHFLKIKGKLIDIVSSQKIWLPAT

[3] = target: RPA (heterotrimer) (UniProt P27694;P15927;P35244 1-616;1-270;1-121); test: pull-down; up to 10-fold more than dsDNA; 10 mM Tris pH 7.4, 50 mM NaCl (oligo DNA) or 100 mM NaCl (plasmid; 200/300 mM for TopBP1 salt series), 10 ug/ml BSA, 10% glycerol, 0.01% NP-40, room temperature, 30 min; bead pull-down with immunoblot; settings: protein: recombinant, copies: 1;1;1
RPA (heterotrimer), sequence (P27694 whole entry, chain 1 of 3): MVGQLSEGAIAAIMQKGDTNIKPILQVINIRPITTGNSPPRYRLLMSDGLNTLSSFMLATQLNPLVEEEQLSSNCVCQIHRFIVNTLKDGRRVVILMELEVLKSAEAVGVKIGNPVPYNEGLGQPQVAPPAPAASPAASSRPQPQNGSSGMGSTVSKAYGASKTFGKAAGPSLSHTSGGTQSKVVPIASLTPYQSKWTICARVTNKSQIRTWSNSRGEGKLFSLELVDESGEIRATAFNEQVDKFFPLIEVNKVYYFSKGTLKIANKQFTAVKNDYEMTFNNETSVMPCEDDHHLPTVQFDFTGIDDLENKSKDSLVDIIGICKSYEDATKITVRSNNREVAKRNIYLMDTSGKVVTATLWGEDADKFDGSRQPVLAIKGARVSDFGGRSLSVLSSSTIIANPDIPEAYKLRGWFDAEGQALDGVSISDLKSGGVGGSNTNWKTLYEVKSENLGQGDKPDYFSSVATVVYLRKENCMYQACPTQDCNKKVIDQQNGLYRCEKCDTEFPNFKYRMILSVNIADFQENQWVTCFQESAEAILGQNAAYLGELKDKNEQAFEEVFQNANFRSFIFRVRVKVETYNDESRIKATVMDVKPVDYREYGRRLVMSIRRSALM
RPA (heterotrimer), sequence (P15927 whole entry, chain 2 of 3): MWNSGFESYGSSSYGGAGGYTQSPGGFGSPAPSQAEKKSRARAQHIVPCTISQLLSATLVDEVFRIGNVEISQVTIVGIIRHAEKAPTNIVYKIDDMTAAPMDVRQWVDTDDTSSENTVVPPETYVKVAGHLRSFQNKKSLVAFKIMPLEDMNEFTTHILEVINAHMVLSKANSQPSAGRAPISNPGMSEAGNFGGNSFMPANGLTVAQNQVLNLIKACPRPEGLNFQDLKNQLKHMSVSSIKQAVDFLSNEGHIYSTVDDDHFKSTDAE
RPA (heterotrimer), sequence (P35244 whole entry, chain 3 of 3): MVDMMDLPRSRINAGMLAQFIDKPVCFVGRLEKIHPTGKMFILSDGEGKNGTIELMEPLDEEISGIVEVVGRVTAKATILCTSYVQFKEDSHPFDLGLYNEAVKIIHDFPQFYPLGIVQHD

[4] = target: MBP-XPA (UniProt P23025 1-273); test: pull-down; 10 mM Tris pH 7.4, 50 mM NaCl (oligo DNA) or 100 mM NaCl (plasmid; 200/300 mM for TopBP1 salt series), 10 ug/ml BSA, 10% glycerol, 0.01% NP-40, room temperature, 30 min; bead pull-down with immunoblot; settings: protein: recombinant; tags: MBP; label: 5'-biotin on Oligo1; fork 1:2; 31 bp duplex, two 19 nt unpaired arms (3' of Oligo1, 5' of Oligo2)
MBP-XPA, sequence (P23025 whole entry): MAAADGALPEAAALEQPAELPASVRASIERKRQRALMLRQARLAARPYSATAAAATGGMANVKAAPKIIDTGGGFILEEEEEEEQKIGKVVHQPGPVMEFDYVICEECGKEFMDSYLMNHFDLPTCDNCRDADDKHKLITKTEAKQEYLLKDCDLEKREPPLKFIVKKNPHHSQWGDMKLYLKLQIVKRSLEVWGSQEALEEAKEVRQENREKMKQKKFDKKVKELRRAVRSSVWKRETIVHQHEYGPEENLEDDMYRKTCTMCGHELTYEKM

[5] = target: FLAG-Claspin (UniProt Q9HAW4 1-1339); test: as above; settings: protein: recombinant; tags: FLAG; label: 5'-biotin on Oligo1; fork 1:2; 31 bp duplex, two 19 nt unpaired arms (3' of Oligo1, 5' of Oligo2)
FLAG-Claspin, sequence (Q9HAW4 whole entry): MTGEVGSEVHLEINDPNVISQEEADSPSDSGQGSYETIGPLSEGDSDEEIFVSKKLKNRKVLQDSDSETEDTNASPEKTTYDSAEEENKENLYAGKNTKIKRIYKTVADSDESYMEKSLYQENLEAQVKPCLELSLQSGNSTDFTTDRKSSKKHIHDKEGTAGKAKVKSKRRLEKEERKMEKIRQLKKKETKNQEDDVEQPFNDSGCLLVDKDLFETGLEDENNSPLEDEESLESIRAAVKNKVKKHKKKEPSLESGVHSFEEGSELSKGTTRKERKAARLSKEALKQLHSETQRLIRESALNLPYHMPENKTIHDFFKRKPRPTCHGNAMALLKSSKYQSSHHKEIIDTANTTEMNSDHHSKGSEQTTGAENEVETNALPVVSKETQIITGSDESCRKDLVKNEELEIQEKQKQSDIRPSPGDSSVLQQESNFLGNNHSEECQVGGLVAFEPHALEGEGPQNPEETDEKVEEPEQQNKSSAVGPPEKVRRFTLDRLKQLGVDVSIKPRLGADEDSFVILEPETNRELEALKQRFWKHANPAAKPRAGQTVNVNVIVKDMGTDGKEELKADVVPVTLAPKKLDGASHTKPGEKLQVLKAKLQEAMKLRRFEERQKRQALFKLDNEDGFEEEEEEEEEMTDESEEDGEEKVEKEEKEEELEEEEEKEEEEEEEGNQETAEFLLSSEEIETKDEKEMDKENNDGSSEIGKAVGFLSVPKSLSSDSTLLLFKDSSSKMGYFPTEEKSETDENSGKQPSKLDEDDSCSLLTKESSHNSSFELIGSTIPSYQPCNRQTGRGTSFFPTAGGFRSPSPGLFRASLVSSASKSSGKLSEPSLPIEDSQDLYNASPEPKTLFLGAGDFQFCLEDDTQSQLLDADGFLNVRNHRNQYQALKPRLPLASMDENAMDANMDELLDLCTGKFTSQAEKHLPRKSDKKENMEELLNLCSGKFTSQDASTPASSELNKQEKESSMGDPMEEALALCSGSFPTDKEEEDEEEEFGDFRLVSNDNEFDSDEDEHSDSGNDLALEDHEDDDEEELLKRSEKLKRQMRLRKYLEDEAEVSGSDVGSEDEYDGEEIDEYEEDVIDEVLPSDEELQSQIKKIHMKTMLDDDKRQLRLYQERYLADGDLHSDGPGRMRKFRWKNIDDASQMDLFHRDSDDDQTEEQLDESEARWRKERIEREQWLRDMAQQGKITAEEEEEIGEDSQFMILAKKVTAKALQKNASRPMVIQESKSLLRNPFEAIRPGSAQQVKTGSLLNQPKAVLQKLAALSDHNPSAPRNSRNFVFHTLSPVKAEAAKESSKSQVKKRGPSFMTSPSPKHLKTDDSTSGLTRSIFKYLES

[6] = target: FLAG-Timeless;Tipin-His (human?;human?, UniProt Q9UNS1;Q9BVW5 1-1208;1-301, |); test: as above; settings: protein: recombinant;recombinant; tags: FLAG;His; copies: 1;1; label: 5'-biotin on Oligo1; fork 1:2; 31 bp duplex, two 19 nt unpaired arms (3' of Oligo1, 5' of Oligo2)
FLAG-Timeless;Tipin-His, sequence (Q9UNS1 whole entry, one chain of several): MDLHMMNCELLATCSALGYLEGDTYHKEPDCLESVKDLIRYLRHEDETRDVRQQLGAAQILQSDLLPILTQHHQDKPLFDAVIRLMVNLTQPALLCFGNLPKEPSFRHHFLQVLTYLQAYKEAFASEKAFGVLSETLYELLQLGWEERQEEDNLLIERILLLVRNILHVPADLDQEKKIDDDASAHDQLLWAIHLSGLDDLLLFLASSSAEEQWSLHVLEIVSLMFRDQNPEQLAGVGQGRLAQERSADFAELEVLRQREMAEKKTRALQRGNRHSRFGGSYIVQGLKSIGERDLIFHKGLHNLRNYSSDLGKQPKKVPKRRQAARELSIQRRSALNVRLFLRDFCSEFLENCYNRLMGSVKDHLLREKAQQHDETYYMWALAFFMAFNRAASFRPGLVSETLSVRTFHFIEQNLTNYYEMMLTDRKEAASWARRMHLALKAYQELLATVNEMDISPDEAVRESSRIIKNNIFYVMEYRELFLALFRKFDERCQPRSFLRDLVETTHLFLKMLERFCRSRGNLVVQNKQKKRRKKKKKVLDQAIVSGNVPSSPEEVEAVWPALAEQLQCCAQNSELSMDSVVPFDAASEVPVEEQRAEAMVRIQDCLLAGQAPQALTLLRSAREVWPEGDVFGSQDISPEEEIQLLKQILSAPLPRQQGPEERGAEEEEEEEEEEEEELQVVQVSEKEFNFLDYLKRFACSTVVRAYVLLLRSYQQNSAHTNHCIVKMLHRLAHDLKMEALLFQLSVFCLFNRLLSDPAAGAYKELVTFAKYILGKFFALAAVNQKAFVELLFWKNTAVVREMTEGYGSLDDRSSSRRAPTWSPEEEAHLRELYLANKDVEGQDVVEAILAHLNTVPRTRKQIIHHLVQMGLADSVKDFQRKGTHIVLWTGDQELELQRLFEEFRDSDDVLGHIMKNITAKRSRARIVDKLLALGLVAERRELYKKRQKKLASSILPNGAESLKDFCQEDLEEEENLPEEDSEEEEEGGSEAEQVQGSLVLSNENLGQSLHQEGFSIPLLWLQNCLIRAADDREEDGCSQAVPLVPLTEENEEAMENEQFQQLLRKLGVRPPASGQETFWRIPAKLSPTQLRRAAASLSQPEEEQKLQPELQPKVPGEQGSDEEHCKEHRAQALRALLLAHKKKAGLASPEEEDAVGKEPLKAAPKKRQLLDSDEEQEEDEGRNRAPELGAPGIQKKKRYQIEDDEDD

[7] = target: FLAG-Timeless (UniProt Q9UNS1 1-1208); test: as above; settings: protein: recombinant; tags: FLAG; label: 5'-biotin on Oligo1; fork 1:2; 31 bp duplex, two 19 nt unpaired arms (3' of Oligo1, 5' of Oligo2)
FLAG-Timeless, sequence (Q9UNS1 whole entry): as the sequence (Q9UNS1 whole entry, one chain of several) above

[8] = target: T3, 9-1-1 complex (FLAG-Rad9-Hus1-Rad1) (UniProt Q99638;O60921;O60671 1-391;1-280;1-282); test: as above; settings: protein: recombinant; tags: FLAG on Rad9; copies: 1;1;1; label: 5'-biotin on Oligo1; fork 1:2; 31 bp duplex, two 19 nt unpaired arms (3' of Oligo1, 5' of Oligo2)
T3 sequence 1: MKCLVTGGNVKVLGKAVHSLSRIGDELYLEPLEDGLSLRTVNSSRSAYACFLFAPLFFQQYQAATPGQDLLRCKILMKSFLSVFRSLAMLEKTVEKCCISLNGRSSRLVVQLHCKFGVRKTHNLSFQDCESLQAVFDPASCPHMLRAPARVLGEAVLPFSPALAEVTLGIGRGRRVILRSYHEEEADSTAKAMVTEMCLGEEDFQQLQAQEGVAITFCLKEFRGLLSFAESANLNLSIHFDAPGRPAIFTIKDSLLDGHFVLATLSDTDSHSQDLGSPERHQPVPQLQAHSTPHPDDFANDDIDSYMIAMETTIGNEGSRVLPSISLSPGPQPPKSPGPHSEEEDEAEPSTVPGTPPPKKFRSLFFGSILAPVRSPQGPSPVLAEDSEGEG
T3 sequence 2: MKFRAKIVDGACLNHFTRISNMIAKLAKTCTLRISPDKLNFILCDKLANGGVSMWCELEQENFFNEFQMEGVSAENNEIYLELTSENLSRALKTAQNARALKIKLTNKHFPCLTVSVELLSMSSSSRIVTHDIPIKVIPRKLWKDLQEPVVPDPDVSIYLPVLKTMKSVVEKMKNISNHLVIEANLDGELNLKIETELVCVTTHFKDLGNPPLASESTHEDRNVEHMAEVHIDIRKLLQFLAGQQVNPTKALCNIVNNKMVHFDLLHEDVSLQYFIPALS
T3 sequence 3: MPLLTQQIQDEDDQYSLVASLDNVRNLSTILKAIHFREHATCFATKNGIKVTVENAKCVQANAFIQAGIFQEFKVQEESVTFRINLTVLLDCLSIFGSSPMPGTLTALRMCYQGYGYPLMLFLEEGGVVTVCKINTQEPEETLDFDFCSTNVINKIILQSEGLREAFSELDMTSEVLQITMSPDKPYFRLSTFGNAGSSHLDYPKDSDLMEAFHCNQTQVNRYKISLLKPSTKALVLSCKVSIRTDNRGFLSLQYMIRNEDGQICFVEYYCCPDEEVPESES

[9] = target: T4, FLAG-ATRIP (UniProt Q8WXE1 1-791); test: pull-down; without RPA; 10 mM Tris pH 7.4, 50 mM NaCl (oligo DNA) or 100 mM NaCl (plasmid; 200/300 mM for TopBP1 salt series), 10 ug/ml BSA, 10% glycerol, 0.01% NP-40, room temperature, 30 min; bead pull-down with immunoblot; settings: protein: recombinant; tags: FLAG; label: 5'-biotin on Oligo1; fork 1:2; 31 bp duplex, two 19 nt unpaired arms (3' of Oligo1, 5' of Oligo2)
T4 sequence: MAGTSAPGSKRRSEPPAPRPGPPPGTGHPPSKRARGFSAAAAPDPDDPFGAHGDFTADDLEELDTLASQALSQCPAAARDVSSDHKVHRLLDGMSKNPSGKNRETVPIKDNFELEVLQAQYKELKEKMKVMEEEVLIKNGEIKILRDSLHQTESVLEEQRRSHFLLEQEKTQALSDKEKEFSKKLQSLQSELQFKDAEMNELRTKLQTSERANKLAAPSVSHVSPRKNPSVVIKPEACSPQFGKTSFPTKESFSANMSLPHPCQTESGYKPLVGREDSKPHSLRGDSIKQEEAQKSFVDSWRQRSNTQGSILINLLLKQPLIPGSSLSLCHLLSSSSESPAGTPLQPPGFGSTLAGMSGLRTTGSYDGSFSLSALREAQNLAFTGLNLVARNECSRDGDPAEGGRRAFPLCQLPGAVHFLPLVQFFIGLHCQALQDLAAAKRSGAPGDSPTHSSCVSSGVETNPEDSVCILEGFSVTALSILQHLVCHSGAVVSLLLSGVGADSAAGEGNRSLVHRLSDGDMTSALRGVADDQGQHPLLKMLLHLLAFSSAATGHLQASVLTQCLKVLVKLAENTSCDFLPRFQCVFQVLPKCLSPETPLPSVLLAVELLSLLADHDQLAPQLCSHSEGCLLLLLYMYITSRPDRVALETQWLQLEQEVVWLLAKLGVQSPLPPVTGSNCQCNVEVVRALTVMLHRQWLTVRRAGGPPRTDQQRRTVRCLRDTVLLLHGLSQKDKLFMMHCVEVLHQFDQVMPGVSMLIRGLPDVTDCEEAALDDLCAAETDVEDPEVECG

[10] = target: T5, Tipin-His (UniProt Q9BVW5 1-301); test: pull-down; >10-fold over ssDNA or dsDNA at highest protein; 10 mM Tris pH 7.4, 50 mM NaCl (oligo DNA) or 100 mM NaCl (plasmid; 200/300 mM for TopBP1 salt series), 10 ug/ml BSA, 10% glycerol, 0.01% NP-40, room temperature, 30 min; bead pull-down with immunoblot; settings: protein: recombinant; tags: His; label: 5'-biotin on Oligo1; fork 1:2; 31 bp duplex, two 19 nt unpaired arms (3' of Oligo1, 5' of Oligo2)
T5 sequence: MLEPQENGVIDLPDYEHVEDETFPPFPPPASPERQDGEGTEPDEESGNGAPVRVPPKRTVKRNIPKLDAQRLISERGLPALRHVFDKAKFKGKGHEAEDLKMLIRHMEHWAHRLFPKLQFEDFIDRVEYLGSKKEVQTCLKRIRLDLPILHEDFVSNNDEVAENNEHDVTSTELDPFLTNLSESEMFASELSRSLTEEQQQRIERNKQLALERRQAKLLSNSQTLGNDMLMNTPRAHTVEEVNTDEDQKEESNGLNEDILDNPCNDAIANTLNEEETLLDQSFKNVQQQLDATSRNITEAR

[11] = label: 5'-biotin on Oligo1, fork 1:2, 31 bp duplex, two 19 nt unpaired arms (3' of Oligo1, 5' of Oligo2)

Measured: binding result

B1: ssDNA 50-mer (Oligo1) (ssDNA)
DNA: GACGCTGCCGAATTCTGGCTTGCTAGGACATCTTTGCCCACGTTGACCCG
binds: [1]; label: 5'-biotin | [2]; label: 5'-biotin | [3]; label: 5'-biotin

B2: fork DNA (Oligo1/Oligo2) (mixed)
DNA 1: B1 DNA
DNA 2: GCGATAGTCTCTAGACAGCATGTCCTAGCAAGCCAGAATTCGGCAGCGTC
binds: [4] | [5] | [6] | [7] | [8] | [1]; [11] | [2]; [11] | [9] | [3]; [11] | [10]
